Source: article PMC4068289

Target: human amyloid β 1–40 carrying the A2V mutation (Aβ_(1–40A2V)) (human)
Experiment: far-Western, overlay or dot blot

## human amyloid β 1–40 carrying the A2V mutation (Aβ_(1–40A2V)) (peptide)
  fold increase in the proportion of A11-stained oligomers against WT: 3 fold
